# From the RNAGym collection of RNA variant scans (doi:10.1073/pnas.2313332121)
# B1: TPR t1 (parent)
# chain: GACCAAUCUGCCCUCAGAGCUCGAGAACAUCUUCGGAUGCAGAGGAGGCAGGCUUCGGUGGCGCGAUAGCGCCAACGUCCUCAACCUCCAAUGCAUCCCACCACAUGAUGAUGCCUGAAGAGCCUUGGUUUUUUG
# Variants of: B1
# Test: polymerase ribozyme fitness, log enrichment relative to wild type (log ratio); higher = more active; in vitro selection for triplet polymerase activity
# Outline: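 Streptavidin-bead capture of gel-excised extended constructs, followed by RT-PCR, closed a single triplicate in vitro selection round. That round began by annealing PCR-built, transcribed mutant libraries of each subunit of a heterodimeric triplet polymerase ribozyme with a biotinylated primer, the partner subunit and triplets, then incubating them frozen at −7 °C. After Illumina sequencing of inputs and outputs, genotypes needed ≥10 input reads and ≥1 read per output. Fitness is the base-2 logarithm of genotype enrichment over wild-type enrichment, using inverse-variance-weighted replicate averages.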
row,Variant,polymerase ribozyme fitness (log ratio)
1,U54C G61C A75U,0.0964
2,U54A C70U C73A C124U U129G,-0.505
3,C53U C72G C104A A121C,-0.137
4,C53G U81C U106A,-4.71
5,U54G C89A U106A,-2.52
6,U54A U87G C123A,0.724
7,U54C G77U,-0.352
8,U54A G71U U87G C123A,-0.353
9,U54A U106A,-1.04
10,C53A G71A C115U,-3.94
11,C53A G120U G127A,-0.445
12,C53U G60A A84C,-0.485
13,U54G G71U A75C C98U U125C,-4.29
14,C53G U81G,-1.16
15,C53U C88A G110C,-4.54
16,C53U C101A,-0.961
17,U54C G120A,-0.357
18,C53G U87G C99G C101U G107U G113A,-7.29
19,U54A C62U U96G,-0.523
20,U54G C85G G113C A118C,-4.79
21,C53U C56G U116A G120C U133G,-1.3
22,C53U C62G C64U C115A,-2.42
23,C53G A83C,-1.33
24,U54A G71C A83C G120U,-0.105

row,Variant,polymerase ribozyme fitness (log ratio)
1,C53U C72A A91C C94G C101A,-4.4
2,C53G G61U C70U,-0.621
3,C53G C98G,-5.63
4,U54G G61A C86G,-5.3
5,C53A U78A,0.532
6,U54A C72G,-0.955
7,U54A A83U G110U,-3.19
8,C53G G63U G122A,-1.7
9,C53G C80U G128C,-2.66
10,C53U G71U C89U C115U,-3.54
11,C53G C76G A100U,-0.651
12,U54A C88G G135U,-1.43
13,C53A G110A,-0.6
14,C53G C73A C102A G128C,-4.69
15,C53U G60U C101G,-1.27
16,C53U C89U C104A C115U C124A U133G,-4.17
17,C53U C72G C79A,-1.72
18,U54A C56A C124A,1.58
19,C53U C73U A90G,0.151
20,U54A C104U C114G C115U,-5.34
21,C53G G120C U125C,0.247
22,C53U G61C U106G C124G G135A,-0.0167
23,U54C A75G C79A,-0.763
24,C53G C64U A118G C123U,-1.6

row,Variant,polymerase ribozyme fitness (log ratio)
1,C53G G69A C115A U116A,-5.69
2,U54C G122A,-0.596
3,U54A C72A C73U A91C C115U,-4.35
4,C53A G63U C82A A83C U96C,-3.55
5,U54G A68C C101A G113U,-7.46
6,C53U A74U U81C G120A,-1.15
7,U54G U87C U92G,-2.64
8,U54A C102G U112G,-6.74
9,U54A C70U C88G C89U C115A,-0.838
10,C53U C94A,-1.44
11,C53U C80U U81C,-4.05
12,C53U C72U U87G G117C,-3.81
13,U54C G57U C115G,-1.53
14,C53G G69A U78C C97U,-2.9
15,C53G C97A,-5.66
16,C53G C70U U78C U106G,-3.34
17,C53A G69U,1.4
18,U54G C124U,1.5
19,C53G C64U,-0.328
20,U54C U109G,-5.15
21,U54C G61U U116A U131C,-2.5
22,C53A U106A G120U C123A,0.599
23,C53G G63A A111C A119G,-1.67
24,U54C,0.321

row,Variant,polymerase ribozyme fitness (log ratio)
1,U54A,0.0154
2,U54G,-0.214
3,U54G U55G G60C C85U,-6.29
4,C53G G60A G61C A91C,-3.39
5,C53U G63A U81A,-2.54
6,C53G G61C C82U G120A,0.391
7,U54A C56A,0.502
8,C53U C72A A91G,-1.6
9,C53U G57C A83C,-0.254
10,C53U C72A U81G G120A U129A,-1.13
11,U54A C73A U78C C102A,-1.97
12,C53U A90C C104A A121G C123A,-2.12
13,C53G C102U U112A G120U,-4.93
14,C53A U55A C82U,-0.263
15,C53U G63A U96A,-2.3
16,C53G C56A C86U U96G G117U,-3.87
17,U54C G77C C104U,-0.638
18,U54C C88U C94A C101U,-0.155
19,U54G C56G A83C G120U,-1.88
20,U54G C97U,-0.558
21,C53U C62A G93C C104U,-1.76
22,C53A U55A G63A G71U G120C,-4.29
23,U54G G60A U87A A95G G110C,-6.6
24,U54G C64U,-3.4

row,Variant,polymerase ribozyme fitness (log ratio)
1,C53U U55G G63U U81C G93U U116C G135C,-5.21
2,C53U G135U,-1.02
3,U54A G63U C99U G117U,-5.72
4,U54A C62A A95C,-2.03
5,C53G A90C G117U,-3.56
6,U54G C85A,-1.99
7,U54C A84G U116G,-2.35
8,U54A C98U U129G U133G,-3.2
9,U54A G60A U78C C89U G120A U126A,-1.78
10,U54A C72G C104U G113A,-3.29
11,C53G G113U,-2.22
12,C53G C101A A121U U126G,-0.329
13,C53A U130C,0.592
14,C53A U130G,-0.264
15,U54C C64U G77U G113C U132A G135U,-3.36
16,C53U G113A,-1.57
17,C53A U132A,-0.786
18,U54A G63U,-0.939
19,U54G G69U A121C U126A,-0.813
20,C53U C115U G117C,-3.76
21,U54A C86U,0.24
22,U54G G69C,-6.2
23,U54G G69U,-0.782
24,C53U G120U,-0.193

row,Variant,polymerase ribozyme fitness (log ratio)
1,C53U G120A,0.773
2,C53G A91U,-1.68
3,U54A G71C C89U U129A,-2.49
4,C53U G58C U81G C88A C89U G120C,-4.46
5,U54G C72G U129A,-2.34
6,C53G U96C U106A A119G U133A,1.61
7,U54A C70G C115U,-5.02
8,C53G U78C U81A C101A G120C A121C,-2.66
9,C53U C73G C89U U112G,-1
10,C53U A108U,-6.86
11,C53U C72U A111U,-3.11
12,C53G G71C,-0.515
13,C53G G71A,-1.22
14,C53G G117A,-1.45
15,C53G C94U,-0.473
16,C53G U112G G113C,-5.93
17,U54A G110A,-1.52
18,C53G C70G C115G,-3.49
19,U54C C70A C82A G128U,-5.17
20,C53U G71A C124A G128C,-1.39
21,C53A G128A,-1.61
22,C53U U132C,-0.221
23,C53G C86A A119G G120U,-0.713
24,C53U C89A,-1.29

row,Variant,polymerase ribozyme fitness (log ratio)
1,C53A U81C U109A G110U U126G,-5.92
2,U54G A108U,-5.9
3,U54G U87A,-0.0841
4,U54G U87C,-0.0304
5,C53G G63C G93C,-0.994
6,C53U C114U,-1.76
7,U54A C62A G63A C88A,-3.95
8,C53G C97A A119U C123U,-4.34
9,C53G A74G G117A,-1.73
10,C53U A118U G120C U133G,0.183
11,U54A G61A U106A C124U U129G,-0.685
12,C53U A121C,2.13
13,C53U A121G,1.95
14,C53G C124A,0.714
15,C53A G71C C86U,-3.57
16,C53U G63A G113U,-5.15
17,C53U C62U U106C G117U,-4.61
18,U54C C73A A121U,2.33
19,C53U G58U C70U,-0.221
20,U54C U96A,-0.835
21,U54A G71U C79U G93A C94U,-2.4
22,C53G C64U G110U G128A U133A,-5.27
23,C53U A111G,0.578
